From EP2127683A1 (Metheresis Translational Research SA, dated 2009)
One block for each binder: values may come before it.

What was measured:
[1] = molecular target: T1, Met on human tumour cells (GTL-16, FaDu) (human, UniProt P08581 25-1390); experiment: cell-binding assay (Lindmo), radiolabelled antibody on paraformaldehyde-fixed GTL-16 cells, double-reciprocal plot extrapolated
T1 construct: whole, on cells; Endogenous Met on 2% paraformaldehyde-fixed cells; also called Hepatocyte Growth Factor Receptor; HGFR

[2] = molecular target: T1, Met on human tumour cells (GTL-16, FaDu); experiment: cell-binding assay (Lindmo), radiolabelled antibody on serial dilution of paraformaldehyde-fixed GTL-16 cells
Met = molecular target: T2, Met (UniProt P08581 25-932, limits assumed)
T2 construct: Target of the stated Kd; The assay and the construct are not described; also called Hepatocyte Growth Factor Receptor; HGFR

[3] = molecular target: T1, Met on human tumour cells (GTL-16, FaDu); experiment: immunocytochemistry on fixed cytospins and immunohistochemistry on frozen xenograft sections, streptavidin-alkaline phosphatase

T1 sequence (P08581 25-1390): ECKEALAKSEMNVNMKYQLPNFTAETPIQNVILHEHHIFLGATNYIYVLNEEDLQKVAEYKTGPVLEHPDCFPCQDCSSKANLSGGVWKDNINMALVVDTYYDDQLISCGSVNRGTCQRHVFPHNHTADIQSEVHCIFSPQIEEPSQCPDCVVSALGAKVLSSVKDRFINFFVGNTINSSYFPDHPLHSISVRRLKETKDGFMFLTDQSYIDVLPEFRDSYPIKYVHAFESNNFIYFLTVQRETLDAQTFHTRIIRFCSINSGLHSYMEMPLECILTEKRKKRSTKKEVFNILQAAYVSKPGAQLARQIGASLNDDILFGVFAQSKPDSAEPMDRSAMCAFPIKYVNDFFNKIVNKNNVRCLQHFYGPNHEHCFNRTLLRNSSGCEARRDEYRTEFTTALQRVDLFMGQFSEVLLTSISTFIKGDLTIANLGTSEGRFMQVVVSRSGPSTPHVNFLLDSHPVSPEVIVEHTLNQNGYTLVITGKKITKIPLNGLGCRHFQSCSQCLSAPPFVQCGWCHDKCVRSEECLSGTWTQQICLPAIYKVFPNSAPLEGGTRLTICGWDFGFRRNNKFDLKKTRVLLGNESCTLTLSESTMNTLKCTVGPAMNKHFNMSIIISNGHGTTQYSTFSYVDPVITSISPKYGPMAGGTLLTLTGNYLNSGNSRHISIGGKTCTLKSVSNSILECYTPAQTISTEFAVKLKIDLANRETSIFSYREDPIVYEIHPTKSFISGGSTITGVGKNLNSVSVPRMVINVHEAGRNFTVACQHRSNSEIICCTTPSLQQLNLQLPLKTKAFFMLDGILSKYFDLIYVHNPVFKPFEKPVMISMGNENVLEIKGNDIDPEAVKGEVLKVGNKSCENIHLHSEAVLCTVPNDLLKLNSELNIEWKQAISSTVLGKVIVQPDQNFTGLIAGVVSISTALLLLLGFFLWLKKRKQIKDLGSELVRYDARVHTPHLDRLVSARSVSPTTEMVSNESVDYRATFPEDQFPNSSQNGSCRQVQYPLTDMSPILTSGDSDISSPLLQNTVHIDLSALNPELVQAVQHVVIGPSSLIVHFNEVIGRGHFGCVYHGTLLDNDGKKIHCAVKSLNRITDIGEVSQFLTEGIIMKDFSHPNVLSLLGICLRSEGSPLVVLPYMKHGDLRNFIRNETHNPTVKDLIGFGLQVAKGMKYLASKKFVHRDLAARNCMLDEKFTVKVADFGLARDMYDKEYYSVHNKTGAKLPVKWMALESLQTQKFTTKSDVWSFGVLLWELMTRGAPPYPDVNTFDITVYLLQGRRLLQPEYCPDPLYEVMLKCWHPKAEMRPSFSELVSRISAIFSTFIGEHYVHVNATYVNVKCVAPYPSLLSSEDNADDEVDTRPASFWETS
T2 sequence (P08581 25-932 limits assumed): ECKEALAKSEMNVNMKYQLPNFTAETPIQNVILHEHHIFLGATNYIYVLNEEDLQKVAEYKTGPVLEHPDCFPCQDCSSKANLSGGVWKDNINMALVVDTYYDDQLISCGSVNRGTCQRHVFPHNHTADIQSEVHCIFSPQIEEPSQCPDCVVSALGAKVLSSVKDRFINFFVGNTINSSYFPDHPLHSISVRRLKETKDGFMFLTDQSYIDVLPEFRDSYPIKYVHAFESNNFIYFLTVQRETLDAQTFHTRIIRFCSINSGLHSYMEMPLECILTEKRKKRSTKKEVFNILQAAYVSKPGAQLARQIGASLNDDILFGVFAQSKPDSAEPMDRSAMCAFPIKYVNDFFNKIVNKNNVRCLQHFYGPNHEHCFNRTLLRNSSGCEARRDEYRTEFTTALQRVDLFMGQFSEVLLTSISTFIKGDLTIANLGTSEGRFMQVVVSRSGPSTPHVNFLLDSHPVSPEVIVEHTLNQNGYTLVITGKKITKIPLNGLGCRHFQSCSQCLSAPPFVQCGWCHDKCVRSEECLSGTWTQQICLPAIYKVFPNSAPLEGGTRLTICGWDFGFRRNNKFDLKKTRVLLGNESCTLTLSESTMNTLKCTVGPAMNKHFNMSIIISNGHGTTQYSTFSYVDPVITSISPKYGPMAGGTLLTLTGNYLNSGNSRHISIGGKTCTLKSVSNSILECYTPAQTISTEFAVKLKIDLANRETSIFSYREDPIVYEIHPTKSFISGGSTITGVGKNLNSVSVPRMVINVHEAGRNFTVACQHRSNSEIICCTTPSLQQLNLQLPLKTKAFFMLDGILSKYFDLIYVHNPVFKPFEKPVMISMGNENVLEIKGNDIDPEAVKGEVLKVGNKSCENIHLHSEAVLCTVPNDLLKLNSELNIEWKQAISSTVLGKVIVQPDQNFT

- immunoreactivity at infinite antigen excess [1]: > 95%
- immunoreactivity at the highest cell concentration [2]: > 70%
B1: 89Zr-N-sucDf-DN30 (antibody, mouse IgG2a, kappa, V domains shown)
VH: QVQLQQPGTELVKPGASVKLSCKASGYTFTSYWIHWVKQRPGQGLEWIGEINPSSGRTNYNEKFKNKVTVTVDKSSTTAYMQLSNLTSEDSAVYYCASRGYWGQGTTLTVSS
VL: DIVLTQSPASLAVSLGQRATISCKASQSVDYDGGSYMSWFQQRPGQPPKLLISAASNLESGIPARFSGSGSGTDFTLNIHPVEEEDVATYYCQQSYEDPLTFGAGTKLELKR
modifications: N-succinyl-desferal (N-sucDf) chelate carrying 89Zr coupled to lysine residues, approximately 1 N-sucDf moiety per DN30 molecule; positions not given

- immunoreactivity at infinite antigen excess [1]: > 95%
- immunoreactivity at the highest cell concentration [2]: > 70%
B2: 131I-DN30 (antibody, mouse IgG2a, kappa, V domains shown)
VH: B1 VH
VL: B1 VL
modifications: radioiodinated with 131I (IODO-GEN method); positions not given

- Kd (Met): 2.64 nM
B3: murine IgG2a MAb DN30 (antibody, V domains shown)
VH: B1 VH
VL: B1 VL
notes: Murine IgG2a from the hybridoma; also called anti-Met monoclonal antibody produced by the hybridoma cell line ICLC PD 05006

- binding result [3]: binds
B4: biotinylated DN30 (antibody, mouse IgG2a, kappa, V domains shown)
VH: B1 VH
VL: B1 VL
modifications: biotinylated; positions not given
